For the test, the target named is SARS-CoV-2 main protease (M^pro), commercial recombinant (rcM^pro) (SARS-CoV-2) (UniProt P0DTD1). As to the kind of experiment: enzyme inhibition assay.

What is called Ki is a dissociation constant, usually derived from enzyme kinetics or from competition with a known ligand. Turning to PPACK (D-Phe-Pro-Arg-CH2Cl) (peptide), the Ki is 160 nM.

Source of the values: paper doi:10.1101/2024.09.05.611400.
